Results as given in patent US8624002B2, “Prostaglandin E2 binding proteins and uses thereof” (AbbVie, Inc., priority 2008, dated 2014).
Where a chain is given by its changes, count along the chain named.

B1: Hu2B5.4: humanized 2B5-8.0; VH SEQ ID NO 66, VL SEQ ID NO 67 (antibody, V domains shown)
VH: EVQLVQSGAEVKKPGASVKVSCKASGYTFTKYWLGWVRQAPGQGLEWIGDIYPGYDYTHYNEKFKDRATLTVDTSTSTAYMELSSLRSDDTAVYYCARSDGSSTYWGQGTLVTVSS
VL: DVLMTQTPLSLPVTPGEPASISCTSSQNIVHSNGNTYLEWYLQKPGQSPQLLIYKVSNRFSGVPDRFSGSGSGTDFTLKISRVEAEDVGVYYCFQVSHVPYTFGGGTKVEIKR
B2: Hu2B5.8: humanized 2B5-8.0; VH SEQ ID NO 74, VL SEQ ID NO 75 (antibody, V domains shown)
VH: B1 VH with I48M, A68V, V72T
VL: B1 VL
B3: Hu2B5.2: humanized 2B5-8.0; VH SEQ ID NO 62, VL SEQ ID NO 63 (antibody, V domains shown)
VH: B1 VH
VL: B1 VL with L3V
B4: Hu2B5.6: humanized 2B5-8.0; VH SEQ ID NO 70, VL SEQ ID NO 71 (antibody, V domains shown)
VH: B1 VH with I48M, A68V, V72T
VL: B1 VL with L3V
B5: Hu2B5.1: humanized 2B5-8.0; VH SEQ ID NO 60, VL SEQ ID NO 61 (antibody, V domains shown)
VH: B1 VH with S84R
VL: B1 VL with L3V
B6: Hu2B5.3: humanized 2B5-8.0; VH SEQ ID NO 64, VL SEQ ID NO 65 (antibody, V domains shown)
VH: B1 VH with S84R
VL: B1 VL
B7: 2B5-8.0: recombinant anti-PGE2 antibody from solved 2B5 sequence; VH SEQ ID NO 42, VL SEQ ID NO 43 (antibody, V domains shown)
VH: QVQLQQSGPELVRPGSSVKISCKASGYTFTKYWLGWVKQRPGHGLEWIGDIYPGYDYTHYNEKFKDKATLTVDTSSSTAYMQLSSLTSEDSAIYYCARSDGSSTYWGQGTLVTVSA
VL: B1 VL with T14S, P15L, E17D, P18Q, K44R, Q50K, D75V, V88L, V109L

Target: not listed separately
Assay: Biotin-PGE2 ELISA (PGE2-biotinamide binding to captured IgG)
Details: not given

Molecule | EC50
B1 | 57 pM
B2 | 87 pM
B3 | 55 pM
B4 | 89 pM
B5 | 63 pM
B6 | 59 pM

Tested on: not listed separately
Assay: Intrinsic thermodynamic stability by DSC
Assay type: physicochemical
Details: 0.79 mg/mL, pH 6, 10 mM citrate, 10 mM phosphate
Protocol: The thermal stability of the anti-PGE2 antibodies was assessed using a DSC instrument. The DSC instrument used was an automated VP-DSC equipment with Capillary Cell (Microcal, GE Healthcare Ltd./Microcal, Buckinghamshire, UK). Unfolding of molecules was studied applying a 1° C./minute scan rate over a 25° C.-95° C. temperature range for samples at 1 mg/mL. Additional measurement parameters applied were a fitting period of 16 seconds, a pre-scan wait time of 10 minutes, and measurements were performed in none-feedback mode. Per individual measurement, 420 μL of sample/blank were filled into the DSC measurement sample holder, with a plate fill scheme as provided below. The thermograms obtained were fitted to a non two state model to obtain the midpoint temperatures and enthalpies of the different transitions.
(§1) The stability of a series of clones (i.e., anti-PGE2 antibodies) of the parent anti-PGE2 antibody was assessed by using intrinsic thermodynamic clone stability determination using DSC (0.79 mg/mL clone concentration, formulated at pH 6 in a 10 mM citrate, 10 mM phosphate buffer) and by accelerated stability screening (0.79 mg/mL clone concentration, formulated at pH 6 in a 10 mM citrate, 10 mM phosphate buffer, for 7 days at 50° C.) where clone stability was monitored with SEC (Table 15).

Molecule | Tm1 (° C.)
B1 | 71.095 °C
B2 | 72.96 °C
B3 | 72.845 °C
B4 | 73.035 °C
B5 | 72.835 °C
B6 | 72.67 °C

Same assay, conditions: same buffer

Molecule | Tm2 (° C.) | Tm3 (° C.)
B1 | 72.41 °C | 82.58 °C
B2 | 75.33 °C | 82.83 °C
B3 | 75.08 °C | 82.67 °C
B4 | 75.585 °C | 82.95 °C
B5 | 75.02 °C | 82.785 °C
B6 | 72.96 °C | 82.67 °C

Tested on: PGE2 induced Ca++ influx in HEK293 Gα16 cells stably transfected with human EP4 receptor
Assay: EP4 bioassay: PGE2 induced Ca++ flux (FLIPR)
Assay type: cell-based
Details: not given
Protocol: The ability of anti-PGE2 antibody to inhibit cellular response of PGE2 in vitro was determined in a Ca^++ flux assay in HEK293 Gα16 cells (Abbott Bioresearch Center, Worcester, Mass.) stably transfected with human EP4 receptor. In brief, an expression plasmid encoding one of the four human PGE2 receptors, EP4, and an expression plasmid encoding Gα16, were co-transfected into human embryonic kidney cell line 293 cells (ATCC# CRL1573, Manassas, Va.). The stable clones co-expressing both human EP4 and Gα16 protein were selected using standard methods (Joseph Sambrook and David W. Russell. Molecular Cloning: A Laboratory Manual Publisher. Published by Cold Spring Harbor Laboratory Press, 2001) and used for the EP4 bioassay. The HEK293 Gα16 cells were plated in black/clear poly-D-lysine plates (Corning #3667, Corning, N.Y.) and incubated with a Ca^++-sensitive dye (Molecular Devices, Sunnyvale, Calif.) for 90 minutes. Stock PGE2 (in 200 proof ethanol) was diluted with FLIPR buffer [containing 1×HBSS (Invitrogen Carlsbad, Calif.), 20 mM HEPES (Invitrogen Carlsbad, Calif.), 0.1% BSA (Sigma, St. Louis, Mo.) and 2.5 mM Probenecid (Sigma, St. Louis, Mo.)]. Anti-PGE2 antibodies or isotype matched control antibodies were also pre-diluted in FLIPR buffer. 25 μl of PGE2 or pre-incubated PGE2/antibody mixture was added to the wells pre-plated with cells. The dose response of PGE2 was determined on a serial titration of PGE2 and using FLIPR1 or Tetra (Molecular Devices, Sunnyvale, Calif.) and EC50 was determined using GraphPad Prism 5 (GraphPad Software, La Jolla, Calif.). […] Ca^++ flux was monitored using FLIPR1 and data was analyzed using GraphPad Prism 5 (GraphPad Software, La Jolla, Calif.).

Molecule | inhibition of PGE2 induced calcium influx in EP4 bioassay
B7 | potently inhibited

Same assay, conditions: PGE2 25 pm; read-out: IC50 (pM) @ PGE2 25 pm Cellular Potency in EP4 assay

Molecule | IC50
B1 | 40 pM
B2 | 78 pM
B3 | 55 pM
B4 | 52 pM
B5 | 55 pM
B6 | 47 pM

Same assay, conditions: read-out: PGE2 Neutralization Potency in Cellular EP4 assay (IC50)

Molecule | IC50
B7 | 44 pM

Tested on: not listed separately
Assay: Accelerated stability screening monitored by SEC
Assay type: physicochemical
Details: SEC, 7 days storage at 50° C.
Protocol: Size exclusion chromatography was used to separate proteins based on size. Proteins are carried in an aqueous mobile phase and through a porous stationary phase resin packed in a column. The retention time in the column is a function of the hydrodynamic size of the protein and the size of the pores in the packed resin bed. Smaller molecules can penetrate into smaller pores in the resin and are retained longer than larger molecules. Upon elution from the column the proteins are detected by UV absorbance. The SEC method used a TSK gel guard (TOSOH Biosciences, Montgomeryville, Pa., cat. no. 08543) and a TSK gel G3000SWxL (TOSOH Biosciences, Montgomeryville, Pa., cat. no. 08541). The mobile phase was 100 mM Na2HPO4, 200 mM Na2SO4, pH 7.0. The flow rate was 0.3 mL/minute. Injection volume was 20 μL of 1 mg/mL sample. The column temperature was room temperature. The autosampler temperature was 2-8° C. The total run time was 50 minutes. The detection was based on UV absorbance at 214 nm wavelength, with band width set at 8 nm, using reference wavelength at 360 nm with band width 100 nm.
as §1

Molecule | Aggregate (%) | Fragment (%) | Monomer (%)
B1 | 2.1689% | 6.5423% | 91.2889%
B2 | 2.5144% | 4.184% | 93.3016%
B3 | 2.1753% | 4.6755% | 93.1491%
B4 | 2.1577% | 4.0253% | 93.817%
B5 | 2.5611% | 6.3675% | 91.0715%
B6 | 2.6042% | 5.044% | 92.3518%

Same assay, conditions: SEC, start of stability study

Molecule | Fragment (%) | Monomer (%)
B1 | 3.2146% | 94.5513%
B2 | 3.2904% | 94.5969%
B3 | 3.3025% | 94.8516%
B4 | 2.7275% | 95.446%
B5 | 4.4044% | 93.7885%
B6 | 3.6853% | 94.1987%

Same assay, conditions: SEC, start of stability study; 0.79 mg/mL, pH 6

Molecule | Aggregate (%)
B1 | 2.234%
B2 | 2.1126%
B3 | 1.846%
B4 | 1.8265%
B5 | 1.8071%
B6 | 2.116%
